Assay results from patent publication US6861254.

Target: IgG agarose beads (Sigma)
Assay: pull-down with IgG agarose beads; recovered HS^act conversion activity

HS^act conversion activity extracted: 7000 units
recovery of initial HS^act conversion activity: 10%
Substance: Protein A tagged mouse r3-OST-1 (from UniProt O35310 27-311)
